In publication PMC6779431:

Target: RTP1S_C2-Strep (TM domain deletion mutant of RTP1S, 1-176 amino acids, with a Strep-tag at the C terminus) (mouse)
Assay: SEC-MALS; OH-Pak SB-804HQ column, 100 μl of 0.3 mg/ml, 20 mM phosphate buffer pH 8.0, 100 mM NaCl

stoichiometry N: 2
Substance: RTP1S_C2-Strep (TM domain deletion mutant of RTP1S, 1-176 amino acids, with a Strep-tag at the C terminus) (domain or fragment)
